Test [1] addresses T1, human PVRIG-his (AcroBiosystems, Cat NO. PVG-H52H4) (human, UniProt Q6DKI7 41-171, limits assumed).
T1 construct: treated as the same protein; also called human PVRIG-His protein; Human PVRIG-His, Acro C227P1-9ARF1-T4
T1 sequence (looked up): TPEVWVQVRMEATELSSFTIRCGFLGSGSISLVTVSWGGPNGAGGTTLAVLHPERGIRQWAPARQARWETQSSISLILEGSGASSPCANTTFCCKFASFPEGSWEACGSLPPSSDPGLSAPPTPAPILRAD
Kind of test: ELISA, coated human PVRIG-his.

Test [2] concerns the target T2, cynomolgus monkey PVRIG on FlpinCHO-cyno PVRIG cells (cynomolgus monkey, UniProt A0A2K5WVV8 41-322).
T2 construct: whole, on cells; also called FlpinCHO-cynomolgus monkey PVRIG
T2 sequence: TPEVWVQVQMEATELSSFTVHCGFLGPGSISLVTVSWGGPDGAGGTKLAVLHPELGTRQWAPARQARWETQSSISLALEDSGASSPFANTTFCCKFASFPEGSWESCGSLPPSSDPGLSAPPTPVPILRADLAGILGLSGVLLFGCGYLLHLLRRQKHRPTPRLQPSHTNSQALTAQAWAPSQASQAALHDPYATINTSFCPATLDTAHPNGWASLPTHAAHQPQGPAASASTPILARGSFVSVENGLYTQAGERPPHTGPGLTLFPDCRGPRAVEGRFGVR
Kind of test: FACS, FlpinCHO-cyno PVRIG cells. How it is done: After discarding the cell culture medium, the cells were rinsed with PBS and digested for 8-10 minutes by adding 1 mL Versene (Gibico, 15040-066). The Ham's F12 (Gibico, 21127-022) complete medium containing 10% FBS was then added to terminate the digestion and acquire cell suspension. After counting with a cell counter (Beckman Coulter, Vi-CELL), an appropriate amount of cell suspension was centrifuged at 350×g to remove the supernatant, washed twice with PBS, stained with Zombie violet (Biolegend, 423114) and incubated at room temperature for 20 minutes. After incubation, the cells were added with staining buffer (2% FBS+PBS) to stop staining, centrifuged at 350×g to remove the supernatant, washed twice and resuspended with staining buffer to a density of 2×10⁶ cells/mL. The cells were plated into a 96-well plate (50 μL of cell suspension per well) for further use. The antibodies were diluted from the highest concentration of 46 nM (two-fold concentration) with staining buffer by 3.3-fold serial dilution. The diluted antibodies were added to the well containing 50 μL of cell suspension. The plate was placed on a microplate shaker at 400 rpm for 1 minute to fully mix the antibodies and cells, and then incubated at 4° C. for 30 minutes. After the incubation, the cells were washed twice with staining buffer (200 μL per well) and centrifuged at 350×g for 5 minutes to discard the supernatant. The PE goat anti-human IgG Fc antibody (ebioscience, 12-4998-82) was diluted 250 times with staining buffer, added into the washed wells (100 μL per well), mixed well, and stained at 4° C. for 30 minutes. After staining, the cells were washed twice with staining buffer, finally resuspended with 200 μL staining buffer and analyzed by flow cytometry (BD, Canto II). […] An antibody binding curve was drawn with concentration of antibodies as the abscissa and the corresponding Mean Fluorescence Intensity (MFI) as the ordinate. The AUC value of the curve was calculated by using a Four Parameter Logistic Fit (GraphPadPrism9). […]

The target in test [3] is T2, cynomolgus monkey PVRIG on …. Briefly: FACS, FlpinCHO-cyno PVRIG cells. The source holds these as a separate data set. In general terms: A flow cytometer gives signals particle by particle.
Test [4] deals with T3, cynomolgus monkey PVRIG (Novoprotein, Cat NO. C09B) (cynomolgus monkey, UniProt A0A2K5WVV8 41-171).
T3 construct: bought reagent; also called cynomolgus monkey PVRIG recombinant protein
T3 sequence: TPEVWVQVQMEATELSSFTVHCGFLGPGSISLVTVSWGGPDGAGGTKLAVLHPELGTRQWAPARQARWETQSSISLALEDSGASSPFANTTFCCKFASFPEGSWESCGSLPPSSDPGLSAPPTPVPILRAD
Briefly: ELISA, coated cynomolgus monkey PVRIG.

Test [5] has as its target T2, cynomolgus monkey PVRIG on …. Briefly: FACS, FlpinCHO cynomolgus monkey PVRIG cells. How it is done: CHO-K1 stable cells ([…]-61™) transfected with human or cynomolgus monkey PVRIG high expression plasmids were named FlpinCHO-hPVRIG and FlpinCHO-cynoPVRIG. […] After discarding the cell culture medium, the cells were rinsed with PBS and digested for 8-10 minutes by adding 1 mL Versene (Gibico, 15040-066). The Ham's F12 (Gibico, 21127-022) complete medium containing 10% FBS was then added to terminate the digestion and acquire cell suspension. After cell counting, an appropriate amount of cell suspension was centrifuged at 350×g to remove the supernatant, washed twice with PBS, stained with Zombie violet (Biolegend, 423114) and incubated at room temperature for 20 minutes. After incubation, the cells were added with staining buffer (2% FBS+PBS) to stop staining, centrifuged at 350×g to remove the supernatant, washed twice and resuspended with staining buffer to a density of 2×10⁶ cells/mL. The cells were plated into a 96-well plate (50 μL of cell suspension per well) for further use. The antibodies were diluted from the highest concentration of 46 nM (two-fold concentration) with staining buffer by 3.3-fold serial dilution. The diluted antibodies were added to the well containing 50 μL of cell suspension. […] After staining, the cells were washed twice with staining buffer, finally resuspended with 200 μL staining buffer and analyzed by flow cytometry (BD, Canto II).

Test [6] has as its target T4, TIGIT on human PBMCs stimulated by SEA (human, UniProt Q495A1 22-244).
T4 construct: whole, on cells
T4 sequence (looked up): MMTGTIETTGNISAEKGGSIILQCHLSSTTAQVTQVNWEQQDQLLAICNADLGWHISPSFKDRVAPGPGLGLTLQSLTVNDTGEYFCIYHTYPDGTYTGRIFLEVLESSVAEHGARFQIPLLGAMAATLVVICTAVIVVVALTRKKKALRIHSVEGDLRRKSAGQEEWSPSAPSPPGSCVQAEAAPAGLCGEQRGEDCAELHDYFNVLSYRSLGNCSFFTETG
Briefly: FACS, SEA-stimulated human PBMCs. How it is done:
The fresh human PBMCs (AllCells, PB004-C) were adjusted to a density of 5×10⁵/mL, added with SEA (Toxin Technology, Inc., AT101) to 100 ng/mL, and cultured at 37° C. with 5% CO₂ for 3 days. The cells were collected 3 days later, washed once with PBS (Hyclone, SH30256), added with Fc Block (BD, 564220) and then incubated at 4° C. for 10 minutes. After washing twice with PBS, the PBMCs were resuspended to 2×10⁵/50 μL with 1% BSA-PBS. The humanized antibodies were diluted to 80 nM with 1% BSA-PBS (diluted by 3-fold serial dilution for 12 concentration points). The 50 μL cells were then mixed with 50 μL diluted antibodies, and then incubated at 4° C. for 60 minutes. […] After washing twice with PBS, the cell samples were resuspended with 1% BSA-PBS, 100 µL/well, and then analyzed by flow cytometry (BD, Canto II).

The target in test [7] is T5, full-length cynomolgus monkey TIGIT on CHO-K1 cells (CHO-K1 cynomolgus monkey TIGIT) (cynomolgus monkey).
T5 construct: NCBI XP_015300911.1; also called cynomolgus monkey TIGIT cells
Kind of test: FACS, CHO-K1 cynomolgus monkey TIGIT cells. How it is done:
(§1) The collected cells were washed once with PBS (Hyclone, Cat NO. SH30256), resuspended to 2×10⁵/50 μL with 1% BSA-PBS. The antibodies were diluted to 80 nM with 1% BSA-PBS (diluted by 3-fold serial dilution for 12 concentration points). The 50 μL cells were then mixed with 50 μL diluted antibodies, and then incubated at 4° C. for 60 minutes. […] After washing twice with PBS, the cell samples were resuspended with 1% BSA-PBS, 100 μL/well and then analyzed by flow cytometry (BD, Canto II).

Test [8] has as its target T6, full-length human TIGIT on CHO-K1 cells (CHO-K1 human TIGIT) (human, UniProt Q495A1 22-244).
T6 construct: NCBI XP_024309156.1; entry includes the signal peptide; also called high expression strain 1D2; medium expression strain 2D10
T6 sequence: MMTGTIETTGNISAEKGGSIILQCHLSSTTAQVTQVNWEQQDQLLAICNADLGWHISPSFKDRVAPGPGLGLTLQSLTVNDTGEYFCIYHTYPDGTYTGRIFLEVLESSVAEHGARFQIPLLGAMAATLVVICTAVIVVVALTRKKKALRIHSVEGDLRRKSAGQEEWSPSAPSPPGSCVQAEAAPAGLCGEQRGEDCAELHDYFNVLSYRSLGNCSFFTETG
Briefly: FACS, CHO-K1 human TIGIT low expression strain. How it is done:
as §1

Test [9] concerns the target T6, full-length human TIGIT on CHO-K1 cells …. Kind of test: FACS, CHO-K1 human TIGIT high expression strain. How it is done:
as §1

Test [10] has the same target. Kind of test: FACS, CHO-K1 human TIGIT medium expression strain. How it is done:
as §1

Test [11] has the same target. Briefly: competition FACS; blocked: Bio-CD155-His binding to CHO-K1 human TIGIT cells. How it is done:
The collected cells were washed once with PBS (Hyclone, SH30256), resuspended to 2×10⁵/40 μL with 1% BSA-PBS. The antibodies were diluted to 210 nM with 1% BSA-PBS (diluted by 3-fold serial dilution for 12 concentration points). […] The 40 μL cells were then mixed with 40 μL diluted antibodies and 40 μL diluted Bio-CD155-His, and then incubated at 4° C. for 60 minutes. The cells were washed twice with PBS, resuspended with APC labeled streptavidin (dilution ratio 1:1700, Biolegend, 405243), 100 μL/well, and incubated at 4° C. for 40 minutes. The cell samples were washed twice with PBS, resuspended with 1% BSA-PBS (100 μL/well) and then analyzed by flow cytometry (BD, Canto II).

T5 sequence (chain, as listed by the source limits assumed): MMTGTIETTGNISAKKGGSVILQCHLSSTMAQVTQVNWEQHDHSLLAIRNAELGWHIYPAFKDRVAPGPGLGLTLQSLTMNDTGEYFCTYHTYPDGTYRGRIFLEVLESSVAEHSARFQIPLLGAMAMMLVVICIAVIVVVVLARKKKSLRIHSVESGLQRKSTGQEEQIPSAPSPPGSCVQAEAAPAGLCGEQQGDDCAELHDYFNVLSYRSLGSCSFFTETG

B1: COM701-hIgG1 (antibody, V domains shown)
VH: QVQLVQSGAEVKKPGASVKVSCKASGYTFTDYNINWVRQAPGQGLEWMGYIYPYIGGSGYAQKFQGRVTMTRDTSTSTVYMELSSLRSEDTAVYYCAREDKTARNAMDYWGQGTLVTVSS
VL: DIQMTQSPSSLSASVGDRVTITCRVSENIYSNLAWYQQKPGKAPKLLIYEATNLAEGVPSRFSGSGSGTDFTLTISSLQPEDFATYYCQHFWGTPYTFGQGTKLEIK
notes: human IgG1 format by its name
As usually defined, the EC50 (read off the curve) is the concentration at which the effect is half-maximal. As for B1, the “EC50 (read off the curve)” value in test [1] was about 60 pM; in test [2], about 500 pM; in test [3], about 600 pM; in test [4] it was about 40 pM; in test [5], about 500 pM.

B2: TIGIT-002-H4L3 (antibody, V domains shown)
VH: EVQLQESGPGLVKPSETLSLTCAVSGYSITSDSWNWIRQPPGKKLEYIGYISYSGNTYYNPSLKSRVTISRDTSKNQFSLKLSSVTAADTAVYYCARLDFSNYGGAVDYWGQGTTVTVSS
VL: DIVMTQSPDSLAVSLGERATINCKASQNVRTAVAWYQQKPGQSPKLMIYSASYRYTGVPDRFSGSGSGTDFTLTISSLQAEDVAVYYCQQYYTTPWTFGGGTKVEIK
notes: humanized; 002.VH4 with 002.VL3
With B2, the concentration giving a half-maximal response (EC50 (read off the curve)) in test [6] is about 60 pM; in test [7], about 400 pM; in test [8] it was about 100 pM; in test [9], about 200 pM; in test [10], about 100 pM. Also, the “IC50 (read off the curve)” value in [11] is about 90 pM.

B3: TIGIT-005-H2L1d (antibody, V domains shown)
VH: EVQLVQSGAEVKKPGASVKVSCKASGYAFTNYLIEWVRQAPGQRLEWMGVINPGSGGTNYKEKFKGRVTITADKSSSTAYMELSSLRSEDTAVYYCARGEYFFFDYWGQGTTVTVSS
VL: DIVMTQSPDSLAVSLGERATINCKASQHVSNAVAWYQHKPGQSPKLLIYSASYRYTGVPDRFSGSGSGTDFTLTISSLQAEDVAVYYCQQHYNTPHTFGGGTKVEIK
notes: humanized; 005.VH2 with 005.VL1d
B3: the “EC50 (read off the curve)” value in test [6] is about 90 pM; in [7] it was about 400 pM; in test [8], about 90 pM; in [9], about 200 pM; in [10] it was about 100 pM. The “IC50 (read off the curve)” value in test [11] is about 90 pM.
